Laboratory results: patent US20260242735A1 (UNIVERSIT T BASEL, published 2026)

B1: Refmab #3 (antibody, human IgG1, V domains shown)
VH: QVQLVQSGAEVKKPGSSVKVSCKASGYTFTDYNMHWVRQAPGQGLEWIGYIYPYNGGTGYNQKFKSKATITADESTNTAYMELSSLRSEDTAVYYCARGRPAMDYWGQGTLVTVSS
VL: DIQMTQSPSSLSASVGDRVTITCRASESVDNYGISFMNWFQQKPGKAPKLLIYAASNQGSGVPSRFSGSGSGTDFTLTISSLQPDDFATYYCQQSKEVPWTFGQGTKVEIK
notes: Tested in IgG format; human IgG1 Fc silent (PG-LALA)
B2: Refmab #2 (antibody, human IgG1, V domains shown)
VH: QVQLVQSGAEVKKPGSSVKVSCKASGGTFSDYAISWVRQAPGQGLEWMGRIIPILGVADYAQKFQGRVTITADKSTRTAYMELSSLRSEDTAVYYCARNWADAFDIWGQGTMVTVSS
VL: DIQLTQSPSSLSASVGDRVTITCRASQGISSVLAWYQQKPGKAPKLLIYDASSLESGVPSRFSGSGSGTDFTLTISSLQPEDFATYYCQQFDSSITFGQGTKLEIK
notes: as for B1
B3: Refmab #1 (antibody, human IgG1, V domains shown)
VH: EVQLVQSGAEVKKPGSSVKVSCKASGYTITDSNIHWVRQAPGQSLEWIGYIYPYNGGTDYNQKFKNRATLTVDNPTNTAYMELSSLRSEDTAFYYCVNGNPWLAYWGQGTLVTVSS
VL: DIQLTQSPSTLSASVGDRVTITCRASESLDNYGIRFLTWFQQKPGKAPKLLMYAASNQGSGVPSRFSGSGSGTEFTLTISSLQPDDFATYYCQQTKEVPWSFGQGTKVEVK
notes: Tested in IgG format; human IgG1 (Absolute Antibody hP67.6, Cat. No. Ab00283-10.0); also called hP67.6
B4: Refmab #4 (antibody, human IgG1, V domains shown)
VH: QVQLVQSGAEVKKPGESVKVSCKASGYTFTNYGMNWVKQAPGQGLEWMGWINTYTGEPTYADKFQGRVTMTTDTSTSTAYMEIRNLGGDDTAVYYCARWSWSDGYYVYFDYWGQGTSVTVSS
VL: DIVMTQSPDSLTVSLGERTTINCKSSQSVLDSSTNKNSLAWYQQKPGQPPKLLLSWASTRESGIPDRFSGSGSGTDFTLTIDSPQPEDSATYYCQQSAHFPITFGQGTRLEIK
notes: as for B1

Columns and labels:
Test in all cases: flow cytometry, IgG on cells expressing the mutant
human CD33 variant Y49I = human CD33 variant Y49I (human, UniProt P20138 18-364)
human CD33 variant Y49H = human CD33 variant Y49H (human, UniProt P20138 18-364)
human CD33 variant M120V = human CD33 variant M120V (human, UniProt P20138 18-364)
human CD33 variant I47P = human CD33 variant I47P (human, UniProt P20138 18-364)
human CD33 variant S131G = human CD33 variant S131G (human, UniProt P20138 18-364)
human CD33 variant K52S = human CD33 variant K52S (human, UniProt P20138 18-364)
human CD33 variant P48L = human CD33 variant P48L (human, UniProt P20138 18-364)
human CD33 variant Y50Q = human CD33 variant Y50Q (human, UniProt P20138 18-364)
human CD33 variant Y49T = human CD33 variant Y49T (human, UniProt P20138 18-364)
human CD33 variant I47R = human CD33 variant I47R (human, UniProt P20138 18-364)
human CD33 variant I47N = human CD33 variant I47N (human, UniProt P20138 18-364)
human CD33 variant Y127R = human CD33 variant Y127R (human, UniProt P20138 18-364)
human CD33 variant Y49V = human CD33 variant Y49V (human, UniProt P20138 18-364)
human CD33 variant I47F = human CD33 variant I47F (human, UniProt P20138 18-364)
Sequence of human CD33 variant I47F (P20138 18-364 I47F limits assumed): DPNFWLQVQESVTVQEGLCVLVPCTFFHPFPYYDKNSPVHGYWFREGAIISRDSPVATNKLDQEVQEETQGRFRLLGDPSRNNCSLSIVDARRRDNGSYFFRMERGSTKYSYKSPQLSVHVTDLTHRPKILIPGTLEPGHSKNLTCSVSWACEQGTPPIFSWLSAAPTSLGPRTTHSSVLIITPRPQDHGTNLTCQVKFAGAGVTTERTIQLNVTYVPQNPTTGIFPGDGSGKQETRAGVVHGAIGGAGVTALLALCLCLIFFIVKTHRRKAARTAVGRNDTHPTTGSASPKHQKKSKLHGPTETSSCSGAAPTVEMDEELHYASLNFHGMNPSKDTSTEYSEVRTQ

Sequence of human CD33 variant I47N (P20138 18-364 I47N limits assumed): as the sequence (P20138 18-364 I47F limits assumed) above, with F30N counted along it
Sequence of human CD33 variant I47P (P20138 18-364 I47P limits assumed): as the sequence (P20138 18-364 I47F limits assumed) above, with F30P counted along it
Sequence of human CD33 variant K52S (P20138 18-364 K52S limits assumed): as the sequence (P20138 18-364 I47F limits assumed) above, with F30I, K35S counted along it
Sequence of human CD33 variant Y49T (P20138 18-364 Y49T limits assumed): as the sequence (P20138 18-364 I47F limits assumed) above, with F30I, Y32T counted along it
Sequence of human CD33 variant Y49V (P20138 18-364 Y49V limits assumed): as the sequence (P20138 18-364 I47F limits assumed) above, with F30I, Y32V counted along it
Sequence of human CD33 variant Y50Q (P20138 18-364 Y50Q limits assumed): as the sequence (P20138 18-364 I47F limits assumed) above, with F30I, Y33Q counted along it
Sequence of human CD33 variant M120V (P20138 18-364 M120V limits assumed): as the sequence (P20138 18-364 I47F limits assumed) above, with F30I, M103V counted along it
Sequence of human CD33 variant S131G (P20138 18-364 S131G limits assumed): as the sequence (P20138 18-364 I47F limits assumed) above, with F30I, S114G counted along it
Sequence of human CD33 variant I47R (P20138 18-364 I47R limits assumed): as the sequence (P20138 18-364 I47F limits assumed) above, with F30R counted along it
Sequence of human CD33 variant P48L (P20138 18-364 P48L limits assumed): as the sequence (P20138 18-364 I47F limits assumed) above, with F30I, P31L counted along it
Sequence of human CD33 variant Y127R (P20138 18-364 Y127R limits assumed): as the sequence (P20138 18-364 I47F limits assumed) above, with F30I, Y110R counted along it
Sequence of human CD33 variant Y49H (P20138 18-364 Y49H limits assumed): as the sequence (P20138 18-364 I47F limits assumed) above, with F30I, Y32H counted along it
Sequence of human CD33 variant Y49I (P20138 18-364 Y49I limits assumed): as the sequence (P20138 18-364 I47F limits assumed) above, with F30I, Y32I counted along it

Binder | Mean % WT Binding (human CD33 variant Y49I) | Mean % WT Binding (human CD33 variant Y49H) | Mean % WT Binding (human CD33 variant M120V) | Mean % WT Binding (human CD33 variant I47P) | Mean % WT Binding (human CD33 variant S131G) | Mean % WT Binding (human CD33 variant K52S) | Mean % WT Binding (human CD33 variant P48L) | Mean % WT Binding (human CD33 variant Y50Q) | Mean % WT Binding (human CD33 variant Y49T) | Mean % WT Binding (human CD33 variant I47R) | Mean % WT Binding (human CD33 variant I47N) | Mean % WT Binding (human CD33 variant Y127R) | Mean % WT Binding (human CD33 variant Y49V) | Mean % WT Binding (human CD33 variant I47F)
B1 | 109 % of WT | 92.1 % of WT | 51.1 % of WT | 2.8 % of WT | 100 % of WT | 96.8 % of WT | 111 % of WT | 95.4 % of WT | 96.5 % of WT | 83.2 % of WT | 91.6 % of WT | 65.9 % of WT | 106 % of WT | 102 % of WT
B2 | 94.3 % of WT | 17.2 % of WT | 95.5 % of WT | 0.7 % of WT | 112 % of WT | 113 % of WT | 90.4 % of WT | 113 % of WT | 76.3 % of WT | 1.6 % of WT | 0.4 % of WT | 110 % of WT | 90.4 % of WT | 2.2 % of WT
B3 | 109 % of WT | 89.1 % of WT | 98.7 % of WT | 84.5 % of WT | 95.1 % of WT | 84.3 % of WT | 102 % of WT | 93.9 % of WT | 108 % of WT | 96.1 % of WT | 87.8 % of WT | 84 % of WT | 101 % of WT | 101 % of WT
B4 | 94 % of WT | 95.1 % of WT | 100 % of WT | 49 % of WT | 96.9 % of WT | 85 % of WT | 1 % of WT | 3.2 % of WT | 2.8 % of WT | 66.2 % of WT | 74.8 % of WT | 116 % of WT | 46.9 % of WT | 102 % of WT
